This is an account of results in article PMC7400510, “Molecular basis of the lipid-induced MucA-MucB dissociation in Pseudomonas aeruginosa” (Communications Biology, 2020).

For test [1], the target named is T1, MucB (pET22b-MucB-6His) (P. aeruginosa, UniProt P38108 22-316).
T1 construct: source: E. coli BL21 (DE3), purified (Ni–NTA, Superdex-75)
T1 sequence: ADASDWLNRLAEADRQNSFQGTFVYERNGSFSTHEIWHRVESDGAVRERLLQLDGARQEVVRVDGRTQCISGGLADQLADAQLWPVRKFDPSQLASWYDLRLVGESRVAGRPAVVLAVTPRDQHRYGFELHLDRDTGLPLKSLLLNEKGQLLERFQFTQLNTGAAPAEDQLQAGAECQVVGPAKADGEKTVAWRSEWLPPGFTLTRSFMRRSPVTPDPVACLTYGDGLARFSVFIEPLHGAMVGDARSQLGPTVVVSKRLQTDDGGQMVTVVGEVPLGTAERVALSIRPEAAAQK
Put plainly: ITC; MucB (20 µM) in the sample cell titrated with MucA^peri (200 µM), 19 injections; 25 mM Tris–HCl (pH 7.5), 150 mM NaCl, 25 °C. To be noted: both partners purified. Background: ITC needs no label: the signal is the heat of the interaction.

In test [2] the target is T2, MucB (pET22b-MucB-6His) (P. aeruginosa, UniProt P38108 22-316).
T2 chain: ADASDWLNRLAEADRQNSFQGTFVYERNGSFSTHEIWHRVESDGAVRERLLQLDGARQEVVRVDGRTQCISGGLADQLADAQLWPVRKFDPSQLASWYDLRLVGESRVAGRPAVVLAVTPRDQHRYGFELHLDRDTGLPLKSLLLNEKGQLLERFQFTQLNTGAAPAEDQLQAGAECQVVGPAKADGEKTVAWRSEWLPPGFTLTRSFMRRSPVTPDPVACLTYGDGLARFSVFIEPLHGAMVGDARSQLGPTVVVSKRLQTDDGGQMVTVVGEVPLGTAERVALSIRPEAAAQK
Put plainly: ITC.

B1: periplasmic region of MucA (MucA^peri: residues 106–194), with His-tag (domain or fragment)
chain: YNQNDALPQMAQQGTTPQIALPQVKGPAVLAGYSEEQGAPQVITNSSSSDTRWHEQRLPIYLRQHVQQSAVSGTESALPYARAASLENR
notes: also called periplasmic domain of MucA; source: E. coli BL21 (DE3), purified (Ni–NTA, Superdex-75); not shown: His6, C-terminal, kept
For orientation: Kd means the concentration at which binding is half-saturated. A high value points to weaker binding. Turning to B1, the Kd with MucB (pET22b-MucB-6His) [1] is 1500 nM. In addition, the Ka with MucB (pET22b-MucB-6His) [2] came to 633000 M⁻¹.
